From patent US20250163449A1, “HERBICIDE-TOLERANT GENES AND METHOD FOR USING SAME” (QINGDAO KINGAGROOT CHEMICAL COMPOUND CO., LTD., priority 2022, published 2025)
Numbering of substitutions follows the chain as printed. Names and notes keep the numbering of the source.

B1: SEQ ID NO: 106: RdpA mutant L82H + V187L + F182W + G103L + T112S (protein)
chain: MHAALSPLSQRFERIAVQPLTGVLGAEITGVDLREPLDDSTWNEILDAFHTYQVIYFPGQAITNEQHIAFSRRFGPVDPVPHLKSIEGYPEVQMIRREANESLRVIGDDWHSDSTFLDAPPAAVVMRAIDVPEHGGDTGFLSMYTAWETLSPTMQATIEGLNVVHSATRVFGSLYQAQNRRWSNTSLKVMDVDAGDRETVHPLVVTHPGSGRKGLYVNQVYCQRIEGMTDAESKPLLQFLYEHATRFDFTCRVRWKKDQVLVWDNLCTMHRAVPDYAGKFRYLTRTTVGGVRPAR
B2: SEQ ID NO: 10 (protein)
chain: B1 chain with L103G, S112T, W182F, L187M
B3: SEQ ID NO: 14 (protein)
chain: B1 chain with L103G, S112T, W182F, L187I
B4: SEQ ID NO: 18 (protein)
chain: B1 chain with L103G, R104A, S112T, W182F
B5: SEQ ID NO: 22 (protein)
chain: B1 chain with L103G, R104D, S112T, W182F
B6: SEQ ID NO: 26 (protein)
chain: B1 chain with L103G, R104L, S112T, W182F
B7: SEQ ID NO: 30 (protein)
chain: B1 chain with L103G, S112T
B8: SEQ ID NO: 34 (protein)
chain: B1 chain with S112T, W182F
B9: SEQ ID NO: 50: RdpA mutant L82H + V187L + F182W + R104G + V80T (protein)
chain: B1 chain with V80T, L103G, R104G, S112T
B10: SEQ ID NO: 54: RdpA mutant L82H + V187L + F182W + R104G + R180W (protein)
chain: B1 chain with L103G, R104G, S112T, R180W
B11: SEQ ID NO: 58: RdpA mutant L82H + V187L + F182W + R104G + R180M (protein)
chain: B1 chain with L103G, R104G, S112T, R180M
B12: SEQ ID NO: 62 (protein)
chain: B1 chain with L103G, R104G, D108C, S112T
B13: SEQ ID NO: 66 (protein)
chain: B1 chain with L103G, R104G, D109E, S112T
B14: SEQ ID NO: 70 (protein)
chain: B1 chain with L103G, R104G, S112T, Q219C
B15: SEQ ID NO: 74 (protein)
chain: B1 chain with L103G, R104G, S112T, Q219P
B16: SEQ ID NO: 118: RdpA mutant L82H + V187L + F182W + R104G + V77I (protein)
chain: B1 chain with V77I, L103G, R104G, S112T
B17: SEQ ID NO: 122: RdpA mutant L82H + V187L + F182W + G103L + R104G + V105Y (protein)
chain: B1 chain with R104G, V105Y, S112T
B18: SEQ ID NO: 1: Amino acid sequence of RdpA (wild-type R-dichlorprop dioxygenase) (protein)
chain: B1 chain with H82L, L103G, S112T, W182F, L187V
modifications: Sphingobium herbicidovorans
B19: SEQ ID NO: 2 (protein)
chain: B1 chain with L103G, S112T, W182F, L187V
B20: SEQ ID NO: 6 (protein)
chain: B1 chain with L103G, S112T, W182F
B21: SEQ ID NO: 78: RdpA mutant L82H + V187L + F182W + G103L + R180D (protein)
chain: B1 chain with S112T, R180D
B22: SEQ ID NO: 98: RdpA mutant L82H + V187L + F182W + G103L + V80T (protein)
chain: B1 chain with V80T, S112T
B23: SEQ ID NO: 90 (protein)
chain: B1 chain with S112T, R180L
B24: SEQ ID NO: 94 (protein)
chain: B1 chain with S112T, R180W
B25: SEQ ID NO: 110 (protein)
chain: B1 chain with S112M
B26: SEQ ID NO: 114 (protein)
chain: B1 chain with S112T, F247Y
B27: SEQ ID NO: 130 (protein)
chain: B1 chain with L103G, R104G, R180M
B28: SEQ ID NO: 134 (protein)
chain: B1 chain with L103G, R104G, R180W

Test system: rice (Jinjing 818)
Experiment: Transgenic rice T0 plantlets in greenhouse sprayed with compound B
Assay type: in vivo
Conditions: medicated medium test and greenhouse spraying test for T0 generation, compound B
Method: Then, the obtained regenerated TO generation transgenic plantlets grew in the greenhouse, and were sprayed with compound B at the growth stage when approximately two leaves unfolded and the third one just appearing. Resistance levels of plants were recorded and evaluated after spraying treatment, wherein, the test results of control Jinjing 818 plants and transgenic Jinjing 818 plants comprising the protein-coding gene of SEQ ID NO: 42 after applying 20 g, 40 g, 60 g, 80 g, 100 g, 120 g/mu (1 mu=1/15 ha) compound B for corresponding days (DAT) are shown in FIG. 2.

| Molecule | tolerance compared with the wild types (summary) |
| --- | --- |
| B1 | exhibited apparent tolerance |

Test system: not listed separately
Experiment: Conversion rate of substrate compound A by E. coli expressing each engineered protein (HPLC, oxygenase activity)
Assay type: biochemical
Conditions: Reaction condition 1: bacteria cultured overnight, substrate compound A and IPTG added to react overnight
From the text: The high-throughput bacterial protein expression was achieved by cloning the synthesized gene that encodes each engineered protein into a bacterial expression vector with a C-terminal histidine tag (His-tag). The vectors were transformed into Escherichia coli (E. coli), and expression of the engineered proteins was induced. E. coli cultures were selected and cultured in centrifuge tubes overnight, meanwhile, added with substrates and IPTG, and the cultures were centrifuged to pellet the bacteria the next day. Alternatively, E. coli cultures were selected and cultured in centrifuge tubes overnight, and centrifuged to pellet the bacteria after adding substrates for reaction the next day. The supernatant of reaction solution was pipetted into a 96-well plate and the absorbance at 510 nm from 4-aminoantipyrine and potassium ferricyanide was measured by an endpoint colorimetric method to detect phenol products. Substrate reduction and product yield were measured by high performance liquid chromatography (HPLC) to detect the oxygenase activity (i.e., enzymatic activity) of the engineered proteins, and the activities of the proteins were compared by calculating conversion rates.
Conversion rate=(Peak area of initial substrate−Peak area of substrate after reaction)/Peak area of initial substrate*100%

| Molecule | Conversion rate |
| --- | --- |
| B2 | 94.1% |
| B3 | 76.8% |
| B4 | 92.1% |
| B5 | 95.5% |
| B6 | 96.8% |
| B7 | 96.5% |
| B8 | 90% |
| B9 | 97.2% |
| B10 | 92.5% |
| B11 | 90% |
| B12 | 90% |
| B13 | 94% |
| B14 | 94% |
| B15 | 97.2% |
| B16 | 95.8% |
| B17 | 94.3% |
| B18 | 0.06% |
| B19 | 67.5% |
| B20 | 95.2% |

Same assay, conditions: Reaction condition 2: bacteria cultured overnight, 8 times dose of substrate compound A of condition 1 added, react 3 hours the next day

| Molecule | Conversion rate |
| --- | --- |
| B1 | 86.3% |
| B21 | 79% |
| B22 | 81% |
| B23 | 57.5% |
| B24 | 63.2% |
| B25 | 54.6% |
| B26 | 53% |
| B27 | 88.3% |
| B28 | 77.6% |
| B18 | 0.06% |

Test system: Arabidopsis thaliana
Experiment: T2 transgenic Arabidopsis thaliana seeds screened on compound A medium
Assay type: in vivo
Conditions: 0.15 μM compound A in medium, 11-24 days
From the text: Engineered proteins were selected for Arabidopsis thaliana transformation and plant analysis. DNA constructs were transformed into Arabidopsis thaliana using Agrobacterium tumifaciens and standard methods known in the art.
The transformed TO transgenic plantlets grew in the greenhouse. T1 generation Arabidopsis thaliana plant seeds produced by transformation of all constructs were collected after approximately 60 days of growth. Transgenic T1 generation Arabidopsis thaliana plants were screened by adding HYG to medium for T1 generation. T1 plants were selfed to produce seeds of T2 generation Arabidopsis thaliana plants. Wherein, compound A was added to medium to screen and test T2 generation Arabidopsis thaliana plant seeds, that were produced by all constructs, comprising unique events screened by T1 generation.

| Molecule | drug resistance compared with wild-type Arabidopsis thaliana (longer roots and larger leaves) |
| --- | --- |
| B21 | exhibited better drug resistance |
| B22 | exhibited better drug resistance |

Test system: not listed separately
Experiment: Enzymatic kinetic measurements of purified proteins with compound A as substrate
Assay type: biochemical
Conditions: purified protein, compound A 0-1000 μM as substrate
Method: Based on the results of HPLC, representative engineered proteins were selected for protein purification. Further protein characterization, such as Km, Vmax and Kcat, was performed on the 8 engineered proteins from Table 2. Conventional Ni column affinity chromatography was used for protein purification and protein extract purity was assessed by SDS-PAGE analysis. After determining protein concentration by BCA method, enzyme activity was determined.

| Molecule | Kcat | Km | Vmax |
| --- | --- | --- | --- |
| B9 | 0.07 S^−1 | 24.9 µM | 15.7 |
| B10 | 0.35 S^−1 | 96.9 µM | 81 |
| B11 | 0.05 S^−1 | 28.3 µM | 12.3 |
| B16 | 0.43 S^−1 | 83.7 µM | 99.5 |
| B17 | 1.1 S^−1 | 96.4 µM | 127.9 |

Test system: rice (Jinjing 818)
Experiment: Transgenic rice seedlings, compound B added to medium at rooting phase
Assay type: in vivo
Conditions: at least 1 μM compound B in medium (0.5 and 1 μM for SEQ ID NO: 42), 17-26 days
Method: Plant transformation vectors were constructed, each comprising a recombinant DNA molecule encoding an engineered protein (SEQ ID NO: 42/38/82/86/102/106/126/138/142) with the protein-coding sequence optimized for monocot expression, and rice (Jinjing 818) calli were transformed with these vectors using Agrobacterium tumifaciens and standard methods known in the art. Different concentrations of hormone herbicide compound B were added at the rooting phase of the rice seedlings to test hormone resistance, wherein, the test results of control Jinjing 818 plants and transgenic Jinjing 818 plants comprising the protein-coding gene of SEQ ID NO: 42 after adding 0.5 μM and 1 μM compound B to medium for 19 days are shown in FIG. 1. The test results of control Jinjing 818 plants and transgenic Jinjing 818 plants comprising the protein-coding genes of SEQ ID NO: 38/82/86/102/106/126/138/142 after adding 1 μM compound B to medium are shown in FIG. 5-11.

| Molecule | drug resistance (tolerance to compound B) compared with wild-type plants |
| --- | --- |
| B1 | exhibited better drug resistance |
